Here are results for one molecule from patent US20260176332A1 (BEIJING MDTK BIOTECHNOLOGY, published 2026).

Assay [1] has as its target T1, Specific Peptide (SEQ ID NO:4: GVPAEGAFTEDFQGLR) (human).
T1 construct: Synthetic peptide coated on the ELISA plate; also called polypeptide number #1
T1 peptide: GVPAEGAFTEDFQGLR
The experiment in a line: ELISA, peptide coated at 2 ug/ml, hybridoma supernatant diluted 100 times. As to the method:
(§1) (1) Coating antigen: Specific Peptide and Elongated Peptide were respectively diluted with the coating solution, and coated at 2 μg/ml, 100 ul/well at 4° C. overnight; washed three times with the washing solution, 350 ul/well, and pat dried. (2) Blocking: 200 ul/well blocking solution, incubated at 37° C. for 2 h; washed three times with the washing solution, 350 ul/well, and pat dried. (3) The antibody (such as #25, #44, or #50) supernatant medium in Table 1 was diluted by 100 times with antibody diluent, 100 ul/well, and the blank was 100 ul antibody dilution, and they were incubated at 37° C. for 1 h; washed three times with the washing solution, 350 ul/well, and pat dried. (4) The secondary antibody was diluted with antibody diluent at a ratio of 1:10000, 100 ul/well, incubated at 37° C. for 1 h; washed three times with the washing solution, 350 ul/well, and pat dried. (5) Color development: 100 ul/well developer was added, incubating 10 min at room temperature. (6) Termination, reading: 100 ul/well stop solution was added, reading at OD 450 nm.
(An ELISA detects its analyte on a solid surface through an enzyme-linked reagent.)

Assay [2] concerns the target T2, Elongated Peptide (SEQ ID NO:5: TDGVPAEGAFTEDFQGLR) (human).
T2 construct: Synthetic peptide coated on the ELISA plate
T2 peptide: TDGVPAEGAFTEDFQGLR
The assay is described as above. As to the method:
as §1

Assay [3] has as its target T3, GSDMD-CT expressed protein (human, UniProt P57764 276-484).
T3 construct: Recombinantly expressed; also called recombinant GSDMD-CT; C-terminus of GSDMD
T3 sequence: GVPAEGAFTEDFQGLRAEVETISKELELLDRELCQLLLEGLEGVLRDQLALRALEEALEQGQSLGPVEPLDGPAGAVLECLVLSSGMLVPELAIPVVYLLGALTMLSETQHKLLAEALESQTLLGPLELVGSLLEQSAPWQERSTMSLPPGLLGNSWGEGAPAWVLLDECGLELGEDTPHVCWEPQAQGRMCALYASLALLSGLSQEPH
The assay is described as follows: competitive inhibition ELISA, coated GSDMD-CT vs soluble GSDMD-CT (FIG. 5). As to the method: The protein coating amount and antibody dilution concentration were preliminarily determined by checkerboard titration, and the experimental procedure was as follows:
(1) Coating antigen: The GSDMD-CT expressed protein was diluted with coating solution and coated at 2 ug/ml, 1 ug/ml, 0.5 ug/ml, 0.25 ug/ml, 100 ul/well overnight at 4° C.; washed three times with the washing solution, 350 ul/well, and pat dried. (2) Blocking: 200 ul/well blocking solution, incubated at 37° C. for 2 h; washed three times with the washing solution, 350 ul/well, and pat dried. (3) 1 ug/mL of #25, #44, and #50 antibodies was diluted 1,000 times with antibody diluent, then diluted with a 2-fold gradient, 100 μl/well, and blank was 100 μl of antibody diluent, and the antibodies were incubated at 37° C. for 1 h; washed three times with the washing solution, 350 ul/well, and pat dried. […] (6) Termination, reading: 100 ul/well stop solution was added, reading at OD 450 nm. (7) The dose curve of coating protein relative to antibody was determined. […] (10) 50 ul of sample solutions of different concentrations were added to 50 ul of diluted antibody, and then 100 ul of the mixture was added to the microplate reader plate and incubated for 1 h at 37° C.

B1: MD2106 #50 (antibody, IgG1, V domains shown)
VH: QVQLQQPGTELVKPGASVKLSCKASGYTFTNYWIHWVKQRPGQGLEWIGNTKPSNGDIHYNEKFRSKATLTVDKSSSTAYIQLSSLTSEDSAVYFCAVGYYWGQGTTLTVSS
VL: DIVMTQSPSSLTVTAGEKVTMSCKSSQSLLNSGNQKNYLTWYQQKPGQPPKMLIYWAYNRDSGVPDRFTGSGSGADFTLTISSVQAEDLAVYYCQNDYSYPLTFGAGTKLEL
notes: Mouse hybridoma monoclonal antibody; heavy chain type IgG1, light chain type kappa; Hybridoma supernatant diluted 100 times in the peptide ELISA; 1 ug/mL antibody, further diluted, in the GSDMD-CT ELISA; also called monoclonal antibody #50; MD2106-#5 #50
As for B1, the binding result is reported as “binds” in assay [1], “no binding” in assay [2] and “binds” in assay [3].
